The target in this test is soluble CD4 (UniProt P01730). As to the kind of experiment: SPR.
Take “HIV-1 YU-2 gp120 A281G (natural protein)”: the Kd was 12.3 nM.

Consider “HIV-1 YU-2 gp120 I420R (natural protein)”, for which the Kd is 24.8 nM.

“HIV-1 YU-2 gp120 I423M/N425K/G431E (natural protein)” yielded a Kd of 78.1 nM.

On to “HIV-1 YU-2 gp120 K282A (natural protein)”, for which the Kd amounted to 11.9 nM. Compared with the last substance, the Kd is about 6.6-fold lower.

The substance “HIV-1 YU-2 gp120 N279A (natural protein)” registered a Kd of 34.6 nM.

“HIV-1 YU-2 gp120 N280A (natural protein)” came in with a Kd of 6.8 nM.

The substance “HIV-1 YU-2 gp120 P124A (natural protein)” returned a Kd of 26.2 nM. Compared with the last substance, the Kd is about 3.9-fold higher.

Consider “HIV-1 YU-2 gp120 R456A (natural protein)”, for which the Kd stood at 11.3 nM.

Regarding “HIV-1 YU-2 gp120 S375W/T257S (natural protein)”, the Kd came to 0.9 nM.

With “HIV-1 YU-2 gp120 T278A (natural protein)”, the Kd was 7.3 nM.

In turn, “HIV-1 YU-2 gp120 T283A (natural protein)” came in with a Kd of 16.7 nM. This Kd lies about 2.3-fold higher than the previous one.

A word on the Kd: it is the concentration at which binding is half-saturated. A lower Kd goes with tighter binding.

Values taken from publication PMC3088361.
